The target in this experiment is PERK luminal domain W165A (UniProt Q9NZJ5). Nature of the experiment: sedimentation velocity AUC.
PERK luminal domain W165A, sequence (Q9NZJ5 105-403 W164A/Q166R): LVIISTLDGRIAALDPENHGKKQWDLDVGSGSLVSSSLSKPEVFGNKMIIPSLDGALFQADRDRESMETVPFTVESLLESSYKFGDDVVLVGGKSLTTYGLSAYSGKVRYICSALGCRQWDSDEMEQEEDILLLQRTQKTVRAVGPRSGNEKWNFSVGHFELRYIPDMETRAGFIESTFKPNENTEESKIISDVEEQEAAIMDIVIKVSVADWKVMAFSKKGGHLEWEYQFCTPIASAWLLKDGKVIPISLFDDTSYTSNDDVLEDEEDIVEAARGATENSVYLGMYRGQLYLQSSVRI

As for “human PERK luminal domain (residues 105–403) (from UniProt Q9NZJ5) W165A”, the other: % (change in tetramer against wild-type) (parent: 0) is -23%. For the same substance, the other: tetramer (relative to dimer = 1) (parent: 0.73) stood at 0.56.

The values above are taken from publication PMC4474532.
